How the values were obtained:
[1] = target: hydrophobin E24K (mutated at the 24th residue)
[2] = target: wild-type hydrophobin protein (HGFI)
[3] = Stabilization (serum stability / pharmacokinetic) study: circulating free GLP-1 in rats by GLP-1 (7-37) ELISA; format: in vivo; conditions: Wistar rats, s.c., 500 μg GLP-1/kg, n = 6 per group
Method: The stabilities of wild-type hydrophobin/GLP-1 and hydrophobin E24K/GLP-1 complexes were investigated to determine whether the complex protects GLP-1 against protease degradation. Two complexes, hydrophobin/GLP-1 (pH 7.0, molar ratio of 1:10) and hydrophobin E24K/GLP (pH 4.0, molar ratio of 1:10) were administered subcutaneously to male Wistar rats (500 μg GLP-1/kg body weight, n = 6 per group), and blood samples from the rats were directly drawn into P700*, K2EDTA tubes (BD Biosciences, Franklin Lakes, NJ) by venipuncture at 0.5, 1, 4, 12, 24, 48, 72 and 96 h. Serum samples (200 μl) were immediately analyzed using a native GLP-1 (7-37) ELISA kit after being centrifuged for 20 min at 13,000 rpm. The amount of free GLP-1 measured in this assay was considered an indicator of the serum serum stability of the complex.

[4] = tested on: insulin secretion; experiment: Insulin stimulation assay after oral glucose administration; format: in vivo; conditions: Wistar rats, s.c. 100 μg GLP-1/kg 30 min before oral glucose 10 g/kg, n = 3 per group, mean ± SE
Method: The insulin secretion assay was performed by injecting the complex (100 μg GLP-1/kg body weight) into male Wistar rats (n = 3 per group). Wild-type GLP-1 (100 μg/kg body weight) and saline were injected subcutaneously as controls. Glucose (10 g/kg body weight, a standard dose for oral glucose administration) was orally administered 30 min after injections of the complexes. […] Blood samples were assayed for insulin levels using a rat insulin RIA kit.

[5] = tested on: INS-1 cells; experiment: cAMP accumulation measurement (HTRF); format: cell-based, rat
Method: For the cAMP assay, INS-1 cells (1.0 × 10^5 cells) were seeded and plated in each well of a 96-well opaque white plate. […] Subsequently, 10 μg of GLP-1 or complex was added. The assay plate was treated with 2.5 μl/well cAMP and an equal volume of anti-cAMP conjugate (Cisbio) after a 1 h incubation. The homogenous time-resolved fluorescence (HTRF) signal was read on a SpectraMax M5 (Molecular Device) microplate reader. The ratio of […] at 665 nm and 620 nm (×10,000) was calculated and plotted.

[6] = tested on: blood glucose; experiment: Single-dose glucoregulatory assay (glucose tolerance test); format: in vivo; conditions: Wistar rats, GLP-1 alone, glucose 2 g/kg i.p.
[7] = tested on: blood glucose and HbA1c; experiment: Long-term anti-diabetic activity (glucose, HbA1c) over 46 days; format: in vivo; conditions: ZDF rats, 250 μg/kg body weight every three days, glucometer
Method: Male ZDF rats (n = 11 per group) were treated with complex (250 μg/kg/3 days) for the entire experimental period (46 days). The control groups were injected with wild-type GLP-1 (250 μg/3 days). HbA1c levels were assessed using a DCA 200 analyzer (Bayer Diagnostics), and glucose levels were monitored during the experimental period.

[8] = tested on: dipeptidyl peptidase IV (DPP-IV); conditions: cited from earlier work
Source text: The extremely poor serum stability renders the therapeutic administration of GLP-1 impractical; therefore, many efforts have focused on altering the pharmacokinetic properties of GLP-1 by developing a series of complexes and analogs, such as exenatide, liraglutide and albiglutide. […] In ad ...

Substance | AUC of free GLP-1 in the serum of Wistar rats within 96 h after subcutaneous injection of the complex, fold over GLP-1 alone (GLP-1 (7-37) ELISA) [1] [fold] | AUC of free GLP-1 in the serum of Wistar rats within 96 h after subcutaneous injection of the complex, fold over GLP-1 alone (GLP-1 (7-37) ELISA) [2] [fold] | time after administration at which circulating GLP-1 was undetectable [3] [h] | insulin level at 5 min after oral glucose [4] [pmol/L] | peak cellular cAMP level ([5]; INS-1 cells 1.0 × 10^5, 500 μM IBMX, 10 μg GLP-1, at 2 min, HTRF, mean ± SE) [pmol/10^5 cells] | time at which cAMP declined to baseline ([5]; INS-1 cells, HTRF-cAMP kit) [min] | time of cAMP peak ([5]; INS-1 cells, HTRF-cAMP kit) [min] | blood glucose in single-dose glucose tolerance test [6] | long-lasting glucose regulatory effect [7] | renal clearance (time) ([8]; in vivo) | lifetime in vivo ([8]; native GLP-1, in vivo, inactivation by DPP-IV) [min] | serum stability of GLP-1 ([8]; rapid degradation by DPP-IV) [min]
glucagon-like peptide-1 (GLP-1) | 3 | 6.3 | – | – | – | – | – | – | – | – | – | –
glucagon-like peptide-1 [GLP-1] | – | – | 4 | 827.09 ± 37.77 | 17.03 ± 0.94 | 10 | 2 | remained at high levels | failed to produce a similar glucose regulatory effect | less than 10 min | < 2 | 3 to 5

From publication PMC4876437, “Novel application of hydrophobin in medical science: a drug carrier for improving serum stability” (Scientific Reports, 2016)
